According to IntAct's records for PubMed 24097060:

B1: Chromosome partition protein MukB (Escherichia coli (strain K12)), P22523 (parent)
chain: MIERGKFRSLTLINWNGFFARTFDLDELVTTLSGGNGAGKSTTMAAFVTALIPDLTLLHFRNTTEAGATSGSRDKGLHGKLKAGVCYSMLDTINSRHQRVVVGVRLQQVAGRDRKVDIKPFAIQGLPMSVQPTQLVTETLNERQARVLPLNELKDKLEAMEGVQFKQFNSITDYHSLMFDLGIIARRLRSASDRSKFYRLIEASLYGGISSAITRSLRDYLLPENSGVRKAFQDMEAALRENRMTLEAIRVTQSDRDLFKHLISEATNYVAADYMRHANERRVHLDKALEFRRELHTSRQQLAAEQYKHVDMARELAEHNGAEGDLEADYQAASDHLNLVQTALRQQEKIERYEADLDELQIRLEEQNEVVAEAIERQQENEARAEAAELEVDELKSQLADYQQALDVQQTRAIQYNQAIAALNRAKELCHLPDLTADCAAEWLETFQAKELEATEKMLSLEQKMSMAQTAHSQFEQAYQLVVAINGPLARNEAWDVARELLREGVDQRHLAEQVQPLRMRLSELEQRLREQQEAERLLADFCKRQGKNFDIDELEALHQELEARIASLSDSVSNAREERMALRQEQEQLQSRIQSLMQRAPVWLAAQNSLNQLSEQCGEEFTSSQDVTEYLQQLLEREREAIVERDEVGARKNAVDEEIERLSQPGGSEDQRLNALAERFGGVLLSEIYDDVSLEDAPYFSALYGPSRHAIVVPDLSQVTEHLEGLTDCPEDLYLIEGDPQSFDDSVFSVDELEKAVVVKIADRQWRYSRFPEVPLFGRAARESRIESLHAEREVLSERFATLSFDVQKTQRLHQAFSRFIGSHLAVAFESDPEAEIRQLNSRRVELERALSNHENDNQQQRIQFEQAKEGVTALNRILPRLNLLADDSLADRVDEIRERLDEAQEAARFVQQFGNQLAKLEPIVSVLQSDPEQFEQLKEDYAYSQQMQRDARQQAFALTEVVQRRAHFSYSDSAEMLSGNSDLNEKLRERLEQAEAERTRAREALRGHAAQLSQYNQVLASLKSSYDTKKELLNDLQRELQDIGVRADSGAEERARIRRDELHAQLSNNRSRRNQLEKALTFCEAEMDNLTRKLRKLERDYFEMREQVVTAKAGWCAVMRMVKDNGVERRLHRRELAYLSADDLRSMSDKALGALRLAVADNEHLRDVLRMSEDPKRPERKIQFFVAVYQHLRERIRQDIIRTDDPVEAIEQMEIELSRLTEELTSREQKLAISSRSVANIIRKTIQREQNRIRMLNQGLQNVSFGQVNSVRLNVNVRETHAMLLDVLSEQHEQHQDLFNSNRLTFSEALAKLYQRLNPQIDMGQRTPQTIGEELLDYRNYLEMEVEVNRGSDGWLRAESGALSTGEAIGTGMSILVMVVQSWEDESRRLRGKDISPCRLLFLDEAARLDARSIATLFELCERLQMQLIIAAPENISPEKGTTYKLVRKVFQNTEHVHVVGLRGFAPQLPETLPGTDEAPSQAS
partner: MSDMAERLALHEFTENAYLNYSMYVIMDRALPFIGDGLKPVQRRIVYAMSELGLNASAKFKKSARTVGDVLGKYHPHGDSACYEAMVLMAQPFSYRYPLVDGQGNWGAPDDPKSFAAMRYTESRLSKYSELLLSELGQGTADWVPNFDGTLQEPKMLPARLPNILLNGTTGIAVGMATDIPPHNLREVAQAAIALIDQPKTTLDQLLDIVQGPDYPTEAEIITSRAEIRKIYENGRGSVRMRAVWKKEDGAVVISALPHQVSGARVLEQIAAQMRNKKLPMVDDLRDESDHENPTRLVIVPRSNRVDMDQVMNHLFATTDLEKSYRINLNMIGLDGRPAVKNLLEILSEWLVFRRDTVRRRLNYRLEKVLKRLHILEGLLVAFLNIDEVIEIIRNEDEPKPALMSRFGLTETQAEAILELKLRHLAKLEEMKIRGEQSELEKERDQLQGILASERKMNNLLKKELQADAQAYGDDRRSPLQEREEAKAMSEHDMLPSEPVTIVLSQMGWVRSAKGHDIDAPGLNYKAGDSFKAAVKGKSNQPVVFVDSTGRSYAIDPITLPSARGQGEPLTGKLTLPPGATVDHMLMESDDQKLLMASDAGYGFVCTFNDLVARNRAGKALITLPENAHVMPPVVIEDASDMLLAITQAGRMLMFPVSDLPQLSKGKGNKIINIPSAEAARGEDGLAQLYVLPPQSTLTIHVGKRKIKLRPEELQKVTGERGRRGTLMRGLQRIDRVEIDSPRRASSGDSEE
B2: DNA topoisomerase 4 subunit A (Escherichia coli (strain K12)), P0AFI2 (parent)
chain: B1 partner
partner: B1 chain

Variants of: B1
Details: with parc_ecoli parC

Variant	effect of a mutation on the interaction
D692F	decreasing interaction

Variants of: B1
Details: with parc_ecoli parC
Remark: another data set of the same source

Variant	effect of a mutation on the interaction
D692F;D746R;E753R	disrupting interaction

Variants of: B2
Details: with mukb_ecoli mukB

Variant	effect of a mutation on the interaction
R705D;R729D	disrupting interaction
